Test results as given in paper PMC6555819, “Comprehensive study of nuclear receptor DNA binding provides a revised framework for understanding receptor specificity”.

B1: NRC3_wobSeed97_DR4_C7A_o1 (dsDNA)
DNA 1: GCCAAAATAGGTCACGAAAGGTCAAAGTCGAATGACGCGATTGACAGCGTAGAATGAAGG
DNA 2: CCTTCATTCTACGCTGTCAATCGCGTCATTCGACTTTGACCTTTCGTGACCTATTTTGGC
B2: NRC3_random_hg19_341_o1 (dsDNA)
DNA 1: GCCCCAGATGACGGGTTGATATGGGCAGCAAACCGCGCGATTGACAGCGTAGAATGAAGG
DNA 2: CCTTCATTCTACGCTGTCAATCGCGCGGTTTGCTGCCCATATCAACCCGTCATCTGGGGC
B3: NRC3_random_hg19_58_o1 (dsDNA)
DNA 1: GCAAGACTCCTGGCTCTGATTCTAAACTAAACATAGGCGATTGACAGCGTAGAATGAAGG
DNA 2: CCTTCATTCTACGCTGTCAATCGCCTATGTTTAGTTTAGAATCAGAGCCAGGAGTCTTGC
B4: NRC3_wobSeed85_DR3_G15T_o1 (dsDNA)
DNA 1: GCCGTCCAAGGTCATAGAGGTCAGTGAATGCCGAGTGCGATTGACAGCGTAGAATGAAGG
DNA 2: CCTTCATTCTACGCTGTCAATCGCACTCGGCATTCACTGACCTCTATGACCTTGGACGGC
B5: NRC3_wobSeed109_DR4_C7T_o1 (dsDNA)
DNA 1: GCCGTCTAAGGTCATAGGAGGTCAGTGAAGACAGATGCGATTGACAGCGTAGAATGAAGG
DNA 2: CCTTCATTCTACGCTGTCAATCGCATCTGTCTTCACTGACCTCCTATGACCTTAGACGGC
B6: NRC3_wobSeed26_DR1_A23G_o1 (dsDNA)
DNA 1: GCTCTAGTTGGTCAAAGGTCACGCACTCGAAATGCGGCGATTGACAGCGTAGAATGAAGG
DNA 2: CCTTCATTCTACGCTGTCAATCGCCGCATTTCGAGTGCGTGACCTTTGACCAACTAGAGC
B7: NRC3_wobSeed29_DR1_C8A_o1 (dsDNA)
DNA 1: GCGCTTAAGGGTCAAAGGTTATAGCATGAATAGAATGCGATTGACAGCGTAGAATGAAGG
DNA 2: CCTTCATTCTACGCTGTCAATCGCATTCTATTCATGCTATAACCTTTGACCCTTAAGCGC
B8: NRC3_wobSeed89_DR3_G16A_o1 (dsDNA)
DNA 1: GCCTATGTAGGTTAAAGGGGTCATTCAGTTTGAAAGGCGATTGACAGCGTAGAATGAAGG
DNA 2: CCTTCATTCTACGCTGTCAATCGCCTTTCAAACTGAATGACCCCTTTAACCTACATAGGC
B9: NRC3_wobSeed41_DR1_A15G_o1 (dsDNA)
DNA 1: GCATATGTAGGTTAGGGGTCATTCAGGTTGGTTCGCGCGATTGACAGCGTAGAATGAAGG
DNA 2: CCTTCATTCTACGCTGTCAATCGCGCGAACCAACCTGAATGACCCCTAACCTACATATGC
B10: NRC3_random_hg19_25_o1 (dsDNA)
DNA 1: GCGAGCCACCACGCCTGGCCTCTCCGATCTCCAACTGCGATTGACAGCGTAGAATGAAGG
DNA 2: CCTTCATTCTACGCTGTCAATCGCAGTTGGAGATCGGAGAGGCCAGGCGTGGTGGCTCGC
B11: NRC3_wobSeed123_DR5_A12T_o1 (dsDNA)
DNA 1: GCCCTCGGAGGTCAACAGGAGGTCAGAGCTGCCAGAGCGATTGACAGCGTAGAATGAAGG
DNA 2: CCTTCATTCTACGCTGTCAATCGCTCTGGCAGCTCTGACCTCCTGTTGACCTCCGAGGGC
B12: NRC3_wobSeed72_DR2_C25G_o1 (dsDNA)
DNA 1: GCTCGAGTAGGTTACGGGGGCATTGAGGGATGAAGAGCGATTGACAGCGTAGAATGAAGG
DNA 2: CCTTCATTCTACGCTGTCAATCGCTCTTCATCCCTCAATGCCCCCGTAACCTACTCGAGC
B13: NRC3_random_hg19_186_o1 (dsDNA)
DNA 1: GCTTTCGTTACTGTAGCCTTGTAGTATAGTTTGAAGGCGATTGACAGCGTAGAATGAAGG
DNA 2: CCTTCATTCTACGCTGTCAATCGCCTTCAAACTATACTACAAGGCTACAGTAACGAAAGC
B14: NRC3_wobSeed18_DR0_A8G_o1 (dsDNA)
DNA 1: GCGATACGGGGTCAAGGCCAGAGTACGCGTATTGATGCGATTGACAGCGTAGAATGAAGG
DNA 2: CCTTCATTCTACGCTGTCAATCGCATCAATACGCGTACTCTGGCCTTGACCCCGTATCGC
B15: NRC3_wobSeed124_DR5_C12T_o1 (dsDNA)
DNA 1: GCCCTACTGGGTCATTCAGAGGTCATTGATCATATGGCGATTGACAGCGTAGAATGAAGG
DNA 2: CCTTCATTCTACGCTGTCAATCGCCATATGATCAATGACCTCTGAATGACCCAGTAGGGC
B16: NRC3_wobSeed53_DR2_T21C_o1 (dsDNA)
DNA 1: GCCCTTACGGGTCACGAGGTCATAGCACGACGAGCGGCGATTGACAGCGTAGAATGAAGG
DNA 2: CCTTCATTCTACGCTGTCAATCGCCGCTCGTCGTGCTATGACCTCGTGACCCGTAAGGGC
B17: NRC3_random_hg19_391_o1 (dsDNA)
DNA 1: GCTAGATATGAGTCTGGCTTGCTGCTATCTACTTCAGCGATTGACAGCGTAGAATGAAGG
DNA 2: CCTTCATTCTACGCTGTCAATCGCTGAAGTAGATAGCAGCAAGCCAGACTCATATCTAGC
B18: NRC3_random_hg19_64_o1 (dsDNA)
DNA 1: GCAATCCAATTGGAGGTGCACTCGTCTAAGTGGTCCGCGATTGACAGCGTAGAATGAAGG
DNA 2: CCTTCATTCTACGCTGTCAATCGCGGACCACTTAGACGAGTGCACCTCCAATTGGATTGC
B19: NRC3_random_hg19_33_o1 (dsDNA)
DNA 1: GCATCTGCATAGAGCTAGAGCTATTGATTCAAAGAGGCGATTGACAGCGTAGAATGAAGG
DNA 2: CCTTCATTCTACGCTGTCAATCGCCTCTTTGAATCAATAGCTCTAGCTCTATGCAGATGC
B20: NRC3_wobSeed99_DR4_T22G_o1 (dsDNA)
DNA 1: GCTCTCGGAGGACACGAAAGGGCAGAGCTCGACATCGCGATTGACAGCGTAGAATGAAGG
DNA 2: CCTTCATTCTACGCTGTCAATCGCGATGTCGAGCTCTGCCCTTTCGTGTCCTCCGAGAGC

What was measured:
VDR:RXRa = VDR:RXRa (Homo sapiens, UniProt P11473;P19793 full;full); assay: no ligand; PBM; 270 nM : 90 nM RXRa; PBS pH 7.4, 2% milk, 0.02% Triton X-100, 1 mM DTT, BSA, 0.4 mg/ml salmon testes DNA; conditions: tags: His kept;His cleaved; copies: 1;1; label: surface-attached array probe
Chain of VDR:RXRa (P11473 whole entry, chain 1 of 2): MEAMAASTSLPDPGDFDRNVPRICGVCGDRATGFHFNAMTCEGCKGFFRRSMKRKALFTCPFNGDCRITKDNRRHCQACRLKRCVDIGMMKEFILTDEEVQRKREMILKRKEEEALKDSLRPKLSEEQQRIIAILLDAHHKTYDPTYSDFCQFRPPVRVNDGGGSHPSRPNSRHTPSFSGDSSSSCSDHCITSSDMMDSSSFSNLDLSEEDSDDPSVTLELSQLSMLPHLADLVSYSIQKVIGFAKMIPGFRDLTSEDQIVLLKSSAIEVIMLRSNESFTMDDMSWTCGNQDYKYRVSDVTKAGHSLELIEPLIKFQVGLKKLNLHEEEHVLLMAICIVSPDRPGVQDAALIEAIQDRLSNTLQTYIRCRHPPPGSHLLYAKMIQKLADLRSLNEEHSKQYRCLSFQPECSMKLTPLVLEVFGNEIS
Chain of VDR:RXRa (P19793 whole entry, chain 2 of 2): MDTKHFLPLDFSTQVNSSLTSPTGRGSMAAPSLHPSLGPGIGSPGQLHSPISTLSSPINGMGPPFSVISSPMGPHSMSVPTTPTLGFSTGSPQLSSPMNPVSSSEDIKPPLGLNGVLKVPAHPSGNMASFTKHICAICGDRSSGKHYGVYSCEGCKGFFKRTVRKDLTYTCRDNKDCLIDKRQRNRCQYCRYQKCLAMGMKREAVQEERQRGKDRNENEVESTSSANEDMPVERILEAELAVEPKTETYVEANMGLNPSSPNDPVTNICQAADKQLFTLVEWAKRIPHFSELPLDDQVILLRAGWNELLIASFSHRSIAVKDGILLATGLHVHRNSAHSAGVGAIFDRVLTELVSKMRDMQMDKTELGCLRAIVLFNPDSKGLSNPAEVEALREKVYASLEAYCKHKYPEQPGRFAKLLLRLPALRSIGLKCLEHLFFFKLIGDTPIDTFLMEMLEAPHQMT
How it was run: (§1)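 Binding buffer was PBS pH 7.4 with 2% milk, 0.02% Triton X-100, 1 mM DTT, 0.2 mg/mL BSA and 0.4 mg/ml salmon testes DNA. In it, ligand-free nuclear receptor dimers were incubated 1 h on custom Agilent 4×180K protein-binding microarrays carrying double-stranded probes. Antibodies against each partner (one per run) detected binding, and z-scores were calculated against random background probes after regression normalization of scanned fluorescence.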

RARg:RXRa = RARg:RXRa (Homo sapiens, UniProt P13631;P19793 full;full); assay: as above; conditions: tags: His kept;His cleaved; copies: 1;1; label: surface-attached array probe
Chain of RARg:RXRa (P13631 whole entry, chain 1 of 2): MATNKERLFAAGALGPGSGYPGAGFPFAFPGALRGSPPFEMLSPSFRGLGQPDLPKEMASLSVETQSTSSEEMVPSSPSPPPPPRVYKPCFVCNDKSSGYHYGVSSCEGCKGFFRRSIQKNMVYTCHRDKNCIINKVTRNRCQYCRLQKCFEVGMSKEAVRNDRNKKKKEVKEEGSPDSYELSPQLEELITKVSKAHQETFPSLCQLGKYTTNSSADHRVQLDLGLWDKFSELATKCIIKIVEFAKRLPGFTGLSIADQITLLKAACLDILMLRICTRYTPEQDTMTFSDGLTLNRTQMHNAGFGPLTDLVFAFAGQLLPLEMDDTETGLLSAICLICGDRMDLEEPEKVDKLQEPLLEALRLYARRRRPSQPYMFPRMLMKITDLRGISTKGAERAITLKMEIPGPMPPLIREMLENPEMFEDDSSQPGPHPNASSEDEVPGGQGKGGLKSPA
Chain of RARg:RXRa (P19793 whole entry, chain 2 of 2): as the sequence (P19793 whole entry, chain 2 of 2) above
How it was run: as §1

RARa:RXRa = RARa:RXRa (Homo sapiens, UniProt P10276;P19793 full;full); assay: as above; conditions: tags: His kept;His cleaved; copies: 1;1; label: surface-attached array probe
Chain of RARa:RXRa (P10276 whole entry, chain 1 of 2): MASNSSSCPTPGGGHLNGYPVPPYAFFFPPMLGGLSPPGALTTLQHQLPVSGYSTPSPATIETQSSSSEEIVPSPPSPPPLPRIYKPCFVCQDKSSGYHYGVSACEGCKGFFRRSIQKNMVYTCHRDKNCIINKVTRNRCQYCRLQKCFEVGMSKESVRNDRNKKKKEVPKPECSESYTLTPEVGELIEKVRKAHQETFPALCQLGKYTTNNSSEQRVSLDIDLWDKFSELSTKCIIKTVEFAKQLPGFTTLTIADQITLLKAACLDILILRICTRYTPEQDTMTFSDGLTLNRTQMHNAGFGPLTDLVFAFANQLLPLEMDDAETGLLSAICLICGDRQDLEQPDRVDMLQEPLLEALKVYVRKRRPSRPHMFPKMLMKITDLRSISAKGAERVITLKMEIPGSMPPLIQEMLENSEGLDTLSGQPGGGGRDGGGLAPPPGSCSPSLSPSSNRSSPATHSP
Chain of RARa:RXRa (P19793 whole entry, chain 2 of 2): as the sequence (P19793 whole entry, chain 2 of 2) above
How it was run: as §1

FXR:RXRa = FXR:RXRa (Homo sapiens, UniProt Q96RI1;P19793 full;full); assay: as above; conditions: tags: His kept;His cleaved; copies: 1;1; label: surface-attached array probe
How it was run: as §1

PXR:RXRa = PXR:RXRa (Homo sapiens, UniProt O75469;P19793 full;full); assay: as above; conditions: tags: His kept;His cleaved; copies: 1;1; label: surface-attached array probe
Chain of PXR:RXRa (O75469 whole entry, chain 1 of 2): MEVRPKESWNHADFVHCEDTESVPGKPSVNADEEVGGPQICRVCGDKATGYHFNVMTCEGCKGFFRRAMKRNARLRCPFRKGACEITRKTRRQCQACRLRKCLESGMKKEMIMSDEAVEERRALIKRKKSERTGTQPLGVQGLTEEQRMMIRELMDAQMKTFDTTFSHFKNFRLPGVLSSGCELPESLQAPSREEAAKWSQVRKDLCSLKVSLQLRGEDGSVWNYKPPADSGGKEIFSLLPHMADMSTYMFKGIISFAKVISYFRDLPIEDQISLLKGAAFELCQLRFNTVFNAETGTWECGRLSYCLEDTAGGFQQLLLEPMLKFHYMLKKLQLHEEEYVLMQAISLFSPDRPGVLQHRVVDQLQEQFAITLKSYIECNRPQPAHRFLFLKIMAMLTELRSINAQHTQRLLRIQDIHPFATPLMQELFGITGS
Chain of PXR:RXRa (P19793 whole entry, chain 2 of 2): as the sequence (P19793 whole entry, chain 2 of 2) above
How it was run: as §1

LXRb:RXRa = LXRb:RXRa (Homo sapiens, UniProt P55055;P19793 full;full); assay: as above; conditions: tags: His kept;His cleaved; copies: 1;1; label: surface-attached array probe
How it was run: as §1

LXRa:RXRa = LXRa:RXRa (Homo sapiens, UniProt Q13133;P19793 full;full); assay: as above; conditions: tags: His kept;His cleaved; copies: 1;1; label: surface-attached array probe
How it was run: as §1

RARb:RXRa = RARb:RXRa (Homo sapiens, UniProt P10826;P19793 full;full); assay: as above; conditions: tags: His kept;His cleaved; copies: 1;1; label: surface-attached array probe
Chain of RARb:RXRa (P10826 whole entry, chain 1 of 2): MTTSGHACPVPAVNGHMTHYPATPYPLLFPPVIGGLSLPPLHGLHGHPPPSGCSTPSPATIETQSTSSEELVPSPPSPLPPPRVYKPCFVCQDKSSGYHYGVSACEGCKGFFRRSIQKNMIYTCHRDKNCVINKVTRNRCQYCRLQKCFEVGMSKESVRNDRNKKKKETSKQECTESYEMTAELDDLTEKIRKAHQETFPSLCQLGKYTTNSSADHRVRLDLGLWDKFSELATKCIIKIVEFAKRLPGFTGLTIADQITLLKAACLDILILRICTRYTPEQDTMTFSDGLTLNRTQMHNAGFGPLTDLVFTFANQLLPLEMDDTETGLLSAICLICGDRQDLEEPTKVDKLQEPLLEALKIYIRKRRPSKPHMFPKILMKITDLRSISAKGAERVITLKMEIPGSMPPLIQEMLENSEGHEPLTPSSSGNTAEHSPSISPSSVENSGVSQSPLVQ
Chain of RARb:RXRa (P19793 whole entry, chain 2 of 2): as the sequence (P19793 whole entry, chain 2 of 2) above
How it was run: as §1

PPARa:RXRa = PPARa:RXRa (Homo sapiens, UniProt Q07869;P19793 full;full); assay: as above; conditions: tags: GST kept;His cleaved; copies: 1;1; label: surface-attached array probe
How it was run: as §1

RXRa = RXRa (Homo sapiens, UniProt P19793); assay: no ligand; PBM; 180 nM; PBS pH 7.4, 2% milk, 0.02% Triton X-100, 1 mM DTT, BSA, 0.4 mg/ml salmon testes DNA; conditions: tags: His cleaved; chain copies: 2; label: surface-attached array probe

Binder | binding signal (VDR:RXRa) | binding signal (RARg:RXRa) | binding signal (RARa:RXRa) | binding signal (FXR:RXRa) | binding signal (PXR:RXRa) | binding signal (LXRb:RXRa) | binding signal (LXRa:RXRa) | binding signal (RARb:RXRa) | binding signal (PPARa:RXRa) | binding signal (RXRa)
B1 | 7.26 PBM z-score against 500 random probes | 8.41 PBM z-score against 500 random probes | 8.32 PBM z-score against 500 random probes | 8.43 PBM z-score against 500 random probes | 7.78 PBM z-score against 500 random probes | 7.91 PBM z-score against 500 random probes |  |  |  | 
B2 |  |  | -0.22 PBM z-score against 500 random probes |  | -0.3 PBM z-score against 500 random probes |  |  |  |  | 
B3 |  |  | -0.89 PBM z-score against 500 random probes |  | -0.84 PBM z-score against 500 random probes |  |  |  |  | 
B4 | 7.93 PBM z-score against 500 random probes |  | 7.13 PBM z-score against 500 random probes | 7.72 PBM z-score against 500 random probes | 6.83 PBM z-score against 500 random probes |  |  |  |  | 
B5 |  |  | 7.11 PBM z-score against 500 random probes | 8.24 PBM z-score against 500 random probes | 7.34 PBM z-score against 500 random probes |  | 8.01 PBM z-score against 500 random probes |  |  | 
B6 |  | 7.77 PBM z-score against 500 random probes | 8.13 PBM z-score against 500 random probes |  | 6.52 PBM z-score against 500 random probes | 6.1 PBM z-score against 500 random probes |  | 5.6 PBM z-score against 500 random probes |  | 
B7 |  | 7.9 PBM z-score against 500 random probes | 9.1 PBM z-score against 500 random probes | 8.78 PBM z-score against 500 random probes | 6.86 PBM z-score against 500 random probes | 6.56 PBM z-score against 500 random probes |  | 5.58 PBM z-score against 500 random probes |  | 
B8 | 8.06 PBM z-score against 500 random probes |  | 7.03 PBM z-score against 500 random probes |  | 6.77 PBM z-score against 500 random probes |  |  |  |  | 
B9 | 6.69 PBM z-score against 500 random probes |  | 7.24 PBM z-score against 500 random probes |  | 6.45 PBM z-score against 500 random probes | 5.79 PBM z-score against 500 random probes |  |  |  | 
B10 |  |  | -0.44 PBM z-score against 500 random probes |  | -0.45 PBM z-score against 500 random probes | -0.09 PBM z-score against 500 random probes | -0.38 PBM z-score against 500 random probes |  |  | 
B11 |  | 8.86 PBM z-score against 500 random probes | 7.44 PBM z-score against 500 random probes | 7.97 PBM z-score against 500 random probes | 6.48 PBM z-score against 500 random probes |  | 6.72 PBM z-score against 500 random probes | 5.85 PBM z-score against 500 random probes | 6.94 PBM z-score against 500 random probes | 
B12 |  |  | 3.03 PBM z-score against 500 random probes |  | 3.09 PBM z-score against 500 random probes |  |  |  |  | 
B13 |  |  | 0.29 PBM z-score against 500 random probes |  | 0.22 PBM z-score against 500 random probes |  |  |  |  | 
B14 |  |  | 7.56 PBM z-score against 500 random probes | 8.08 PBM z-score against 500 random probes | 6.46 PBM z-score against 500 random probes | 5.96 PBM z-score against 500 random probes |  |  | 6.56 PBM z-score against 500 random probes | 8.69 PBM z-score against 500 random probes
B15 |  | 8.13 PBM z-score against 500 random probes | 7.55 PBM z-score against 500 random probes |  | 6.43 PBM z-score against 500 random probes |  |  |  |  | 
B16 | 6.6 PBM z-score against 500 random probes | 7.59 PBM z-score against 500 random probes | 8.05 PBM z-score against 500 random probes | 8.01 PBM z-score against 500 random probes | 6.58 PBM z-score against 500 random probes |  |  |  | 6.48 PBM z-score against 500 random probes | 8.57 PBM z-score against 500 random probes
B17 |  |  | -0.46 PBM z-score against 500 random probes |  | -0.47 PBM z-score against 500 random probes | -0.73 PBM z-score against 500 random probes |  |  |  | 
B18 |  |  | -0.24 PBM z-score against 500 random probes |  | -0.06 PBM z-score against 500 random probes |  |  |  |  | 
B19 |  |  | -1.05 PBM z-score against 500 random probes |  | -1.09 PBM z-score against 500 random probes |  |  | -1.35 PBM z-score against 500 random probes |  | 
B20 |  |  | 0.47 PBM z-score against 500 random probes |  | 0.23 PBM z-score against 500 random probes |  |  |  |  | 
